This is an account of results in PMC12749725 (Nature Communications, 2025).

Values joined by “and” are separate entries in the source; they are usually repeats but may differ in a detail not shown here. Equal values may be shown once.

In data set [1] the target is T1, BAI3 extracellular domain (ECD) (human, UniProt O60242 25-880).
T1 sequence (looked up): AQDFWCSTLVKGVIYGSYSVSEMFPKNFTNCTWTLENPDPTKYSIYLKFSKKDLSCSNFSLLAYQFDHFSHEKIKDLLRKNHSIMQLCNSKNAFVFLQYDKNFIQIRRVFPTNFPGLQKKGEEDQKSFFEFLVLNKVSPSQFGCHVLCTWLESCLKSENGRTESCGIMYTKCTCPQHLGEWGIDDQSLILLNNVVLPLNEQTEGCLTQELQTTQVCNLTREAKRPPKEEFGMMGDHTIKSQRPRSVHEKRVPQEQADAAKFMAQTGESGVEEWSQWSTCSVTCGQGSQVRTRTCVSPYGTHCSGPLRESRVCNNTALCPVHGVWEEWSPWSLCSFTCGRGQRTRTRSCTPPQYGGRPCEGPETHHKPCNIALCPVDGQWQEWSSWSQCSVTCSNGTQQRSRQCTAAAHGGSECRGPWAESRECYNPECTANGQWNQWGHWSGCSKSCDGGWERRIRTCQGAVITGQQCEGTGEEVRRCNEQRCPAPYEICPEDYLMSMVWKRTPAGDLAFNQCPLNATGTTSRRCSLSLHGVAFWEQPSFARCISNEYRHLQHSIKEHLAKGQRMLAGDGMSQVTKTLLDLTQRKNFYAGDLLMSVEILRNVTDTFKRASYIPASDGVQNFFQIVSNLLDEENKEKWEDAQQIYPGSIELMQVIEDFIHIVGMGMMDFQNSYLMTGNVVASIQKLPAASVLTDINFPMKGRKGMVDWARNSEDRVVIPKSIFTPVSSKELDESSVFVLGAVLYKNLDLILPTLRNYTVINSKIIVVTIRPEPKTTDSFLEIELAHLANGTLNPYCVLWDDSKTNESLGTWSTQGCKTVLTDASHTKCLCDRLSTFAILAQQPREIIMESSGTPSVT
Put plainly: ITC. (ITC needs no label: the signal is the heat of the interaction.)

The target of data set [2] is T2, BAI3_eCUB^253 (C-terminal extended CUB domain of BAI3, aa. 25-253) (human, UniProt O60242 25-253).
T2 sequence (looked up): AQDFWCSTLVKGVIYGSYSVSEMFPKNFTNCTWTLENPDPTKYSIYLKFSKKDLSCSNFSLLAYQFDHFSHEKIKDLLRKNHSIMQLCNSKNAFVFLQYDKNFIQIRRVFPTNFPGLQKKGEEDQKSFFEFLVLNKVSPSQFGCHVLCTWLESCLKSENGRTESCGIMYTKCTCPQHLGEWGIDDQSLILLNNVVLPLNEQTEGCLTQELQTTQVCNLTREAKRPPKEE
The experiment in a line: ITC.

Data set [3] deals with the molecule itself. Put plainly: SEC-MALS. In general terms: SEC sorts molecules by how far they enter the pores of the column.
Data set [4] deals with the molecule itself. The experiment in a line: SEC.
Data set [5] deals with the molecule itself. Put plainly: SEC. The source holds these as a separate data set.

B1: C1ql1_gC1q (globular C1q domain of mouse C1ql1), wild type (domain or fragment)
chain: ATYTTVPRVAFYAGLKNPHEGYEVLKFDDVVTNLGNNYDAASGKFTCNIPGTYFFTYHVLMRGGDGTSMWADLCKNGQVRASAIAQDADQNYDYASNSVILHLDAGDEVFIKLDGGKAHGGNSNKYSTFSGFIIYSD
Turning to B1, the figures for the Kd in data set [1] and in data set [2] were roughly 1100 nM and roughly 150 nM, respectively. The stoichiometry N – broadly, the number of molecules, sites or subunits per partner or assembly – in data set [2] is 3 eCUB molecules per gC1q trimer; in data set [3], 6 and 3.

B2: C1ql1_gC1q D208N (domain or fragment, mouse)
chain: TTVPRVAFYAGLKNPHEGYEVLKFDDVVTNLGNNYDAASGKFTCNIPGTYFFTYHVLMRGGDGTSMWADLCKNGQVRASAIAQNADQNYDYASNSVILHLDAGDEVFIKLDGGKAHGGNSNKYSTFSGFIIYSD
With B2, the “fold weaker binding than wild type” value in data set [2] is roughly 9 fold. For the same molecule, the binding result in data set [4] is “binds”.

B3: C1ql1_gC1q D214N (domain or fragment, mouse)
chain: TTVPRVAFYAGLKNPHEGYEVLKFDDVVTNLGNNYDAASGKFTCNIPGTYFFTYHVLMRGGDGTSMWADLCKNGQVRASAIAQDADQNYNYASNSVILHLDAGDEVFIKLDGGKAHGGNSNKYSTFSGFIIYSD
As for B3, in data set [2], the binding result is on record as “binds”.

B4: C1ql1_gC1q D210N (domain or fragment, mouse)
chain: TTVPRVAFYAGLKNPHEGYEVLKFDDVVTNLGNNYDAASGKFTCNIPGTYFFTYHVLMRGGDGTSMWADLCKNGQVRASAIAQDANQNYDYASNSVILHLDAGDEVFIKLDGGKAHGGNSNKYSTFSGFIIYSD
As to B4, the binding result in data set [2] is listed as “binds”.

B5: C1ql1_gC1q A209S (domain or fragment, mouse)
chain: TTVPRVAFYAGLKNPHEGYEVLKFDDVVTNLGNNYDAASGKFTCNIPGTYFFTYHVLMRGGDGTSMWADLCKNGQVRASAIAQDSDQNYDYASNSVILHLDAGDEVFIKLDGGKAHGGNSNKYSTFSGFIIYSD
On to B5, for which the binding result in data set [2] is listed as “binds”.

B6: full-length C1ql1, bacteria-expressed (without signal peptide) (natural protein, mouse, UniProt O88992 17-258, looked up)
chain: GPDGHYEMLGTCRMVCDPYPARGPGAGARSDGGDALSEQSGAPPPSTLVQGPQGKPGRTGKPGPPGPPGDRGPPGPVGPPGEKGEPGKPGPPGLPGSGGSGAISTATYTTVPRVAFYAGLKNPHEGYEVLKFDDVVTNLGNNYDAASGKFTCNIPGTYFFTYHVLMRGGDGTSMWADLCKNGQVRASAIAQDADQNYDYASNSVILHLDAGDEVFIKLDGGKAHGGNSNKYSTFSGFIIYSD
As to B6, the “stoichiometry N” value in data set [5] was 6 and 3.
